The text below walks through data of PMC12784932, “Keratin 15 promotes a progenitor cell state in basal keratinocytes of skin epidermis” (The Journal of Cell Biology, 2026).

This test concerns the target T1, EGFP-K14 WT (human keratin 14) (human, UniProt P02533 1-472).
T1 construct: keratin 14 (K14), human; codon-optimized KRT14 cDNA synthesized by Twist Biosciences; Co-expressed with untagged human K5, its type II copolymerization partner; also called WT K14; source: HeLa, transfected (nucleofection) together with untagged K5, in lysate (detergent-soluble pool)
T1 sequence (looked up): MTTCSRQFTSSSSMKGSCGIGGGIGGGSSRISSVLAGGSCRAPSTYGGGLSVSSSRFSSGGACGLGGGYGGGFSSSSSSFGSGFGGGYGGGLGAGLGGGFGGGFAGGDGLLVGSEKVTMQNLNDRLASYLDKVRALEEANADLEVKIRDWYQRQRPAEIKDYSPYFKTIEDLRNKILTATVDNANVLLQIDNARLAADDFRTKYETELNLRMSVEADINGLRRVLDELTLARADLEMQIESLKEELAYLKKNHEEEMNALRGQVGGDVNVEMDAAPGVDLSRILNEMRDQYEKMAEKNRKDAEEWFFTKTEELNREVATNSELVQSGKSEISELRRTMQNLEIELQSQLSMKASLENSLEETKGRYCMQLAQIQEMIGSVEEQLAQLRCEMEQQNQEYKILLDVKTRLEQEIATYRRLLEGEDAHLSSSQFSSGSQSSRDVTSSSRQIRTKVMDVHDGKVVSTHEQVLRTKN
Put plainly: co-IP; GFP-Trap Magnetic Agarose (25 μl beads) on 600 μg lysate of HeLa cells cotransfected with untagged K5 and the EGFP-tagged keratin; lysis in 10 mM Tris/Cl pH 7.5, 150 mM NaCl, 0.5 mM EDTA, 0.5% Nonidet P-40 Substitute (detergent-soluble pool); 4°C, 1 h; western blot for endogenous 14-3-3σ; 14-3-3σ signal normalized to GFP. As to conditions: partners not purified. For orientation: Immunoblotting shows a protein as a band on a membrane.

Bounds are passed on as bounds.

B1: 14-3-3σ (stratifin) (natural protein, human (endogenous in HeLa), UniProt P31947 1-248, looked up)
chain: MERASLIQKAKLAEQAERYEDMAAFMKGAVEKGEELSCEERNLLSVAYKNVVGGQRAAWRVLSSIEQKSNEEGSEEKGPEVREYREKVETELQGVCDTVLGLLDSHLIKEAGDAESRVFYLKMKGDYYRYLAEVATGDDKKRIIDSARSAYQEAMDISKKEMPPTNPIRLGLALNFSVFHYEIANSPEEAISLAKTTFDEAMADLHTLSEDSYKDSTLIMQLLRDNLTLWTADNAGEEGGEAPQEPQS
notes: 14-3-3σ / stratifin, endogenous in HeLa cells; also called stratifin/14-3-3σ; endogenous 14-3-3σ; source: endogenous, HeLa lysate; endogenous, fixed HeLa cells
Consider B1, for which the “fold 14-3-3σ in the immunoprecipitate (normalized to GFP) against the EGFP-K15 WT immunoprecipitate” value is > 2 fold.
